# According to patent US20180155451A1 (published 2018):
# B1: GpH7-A5/GpH7-B3 variant A330_03V/GpL16-k0 (antibody, human IgG1, kappa)
# heavy 1: not shown
# heavy 2: not shown
# light: DIVMTQSPLSLPVTPGEPASISCQASESLVHSNRNTYLHWYLQKPGQSPQLLIYKVSNRFSGVPDRFSGSGSGTDFTLKISRVEAEDVGVYYCSQNTHVPPTFGQGTKVEIERTVAAPSVFIFPPSDEQLKSGTASVVCLLNNFYPREAKVQWKVDNALQSGNSQESVTEQDSKDSTYSLSSTLTLSKADYEKHKVYACEVTHQGLSSPVTKSFNRGEC
# notes: He Ab; IgG1; mutation in one H chain only; also called He Ab
# B2: GpH7-A5/GpH7-B3 variant A330_07I/GpL16-k0 (antibody, human IgG1, kappa)
# heavy 1: not shown
# heavy 2: not shown
# light: B1 light
# notes: as for B1
# B3: GpH7-A5/GpH7-B3 variant A330_08L/GpL16-k0 (antibody, human IgG1, kappa)
# heavy 1: not shown
# heavy 2: not shown
# light: B1 light
# notes: as for B1
# B4: GpH7-A5/GpH7-B3 variant A330_12R/GpL16-k0 (antibody, human IgG1, kappa)
# heavy 1: not shown
# heavy 2: not shown
# light: B1 light
# notes: as for B1
# B5: GpH7-A5/GpH7-B3 variant A330_13S/GpL16-k0 (antibody, human IgG1, kappa)
# heavy 1: not shown
# heavy 2: not shown
# light: B1 light
# notes: as for B1
# B6: GpH7-A5/GpH7-B3 variant A330_14T/GpL16-k0 (antibody, human IgG1, kappa)
# heavy 1: not shown
# heavy 2: not shown
# light: B1 light
# notes: as for B1
# B7: GpH7-A5/GpH7-B3 variant A330_18N/GpL16-k0 (antibody, human IgG1, kappa)
# heavy 1: not shown
# heavy 2: not shown
# light: B1 light
# notes: as for B1
# B8: GpH7-A5/GpH7-B3 variant E333_01G/GpL16-k0 (antibody, human IgG1, kappa)
# heavy 1: not shown
# heavy 2: not shown
# light: B1 light
# notes: as for B1
# B9: GpH7-A5/GpH7-B3 variant E333_11K/GpL16-k0 (antibody, human IgG1, kappa)
# heavy 1: not shown
# heavy 2: not shown
# light: B1 light
# notes: as for B1
# B10: GpH7-A5/GpH7-B3 variant E333_13S/GpL16-k0 (antibody, human IgG1, kappa)
# heavy 1: not shown
# heavy 2: not shown
# light: B1 light
# notes: as for B1
# B11: GpH7-A5/GpH7-B3 variant E333_18N/GpL16-k0 (antibody, human IgG1, kappa)
# heavy 1: not shown
# heavy 2: not shown
# light: B1 light
# notes: as for B1
# B12: GpH7-A5/GpH7-B3 variant I332_03V/GpL16-k0 (antibody, human IgG1, kappa)
# heavy 1: not shown
# heavy 2: not shown
# light: B1 light
# notes: as for B1
# B13: GpH7-A5/GpH7-B3 variant I332_12R/GpL16-k0 (antibody, human IgG1, kappa)
# heavy 1: not shown
# heavy 2: not shown
# light: B1 light
# notes: as for B1
# B14: GpH7-A5/GpH7-B3 variant I332_18N/GpL16-k0 (antibody, human IgG1, kappa)
# heavy 1: not shown
# heavy 2: not shown
# light: B1 light
# notes: as for B1
# B15: GpH7-A5/GpH7-B3 variant I336_19Q/GpL16-k0 (antibody, human IgG1, kappa)
# heavy 1: not shown
# heavy 2: not shown
# light: B1 light
# notes: as for B1
# B16: GpH7-A5/GpH7-B3 variant I336_20W/GpL16-k0 (antibody, human IgG1, kappa)
# heavy 1: not shown
# heavy 2: not shown
# light: B1 light
# notes: as for B1
# B17: GpH7-A5/GpH7-B3 variant N325_11K/GpL16-k0 (antibody, human IgG1, kappa)
# heavy 1: not shown
# heavy 2: not shown
# light: B1 light
# notes: as for B1
# B18: GpH7-A5/GpH7-B3 variant N325_12R/GpL16-k0 (antibody, human IgG1, kappa)
# heavy 1: not shown
# heavy 2: not shown
# light: B1 light
# notes: as for B1
# B19: GpH7-A5/GpH7-B3 variant P329_02A/GpL16-k0 (antibody, human IgG1, kappa)
# heavy 1: not shown
# heavy 2: not shown
# light: B1 light
# notes: as for B1
# B20: GpH7-A5/GpH7-B3 variant P329_03V/GpL16-k0 (antibody, human IgG1, kappa)
# heavy 1: not shown
# heavy 2: not shown
# light: B1 light
# notes: as for B1
# B21: GpH7-A5/GpH7-B3 variant P329_04F/GpL16-k0 (antibody, human IgG1, kappa)
# heavy 1: not shown
# heavy 2: not shown
# light: B1 light
# notes: as for B1
# B22: GpH7-A5/GpH7-B3 variant P329_06M/GpL16-k0 (antibody, human IgG1, kappa)
# heavy 1: not shown
# heavy 2: not shown
# light: B1 light
# notes: as for B1
# B23: GpH7-A5/GpH7-B3 variant P329_07I/GpL16-k0 (antibody, human IgG1, kappa)
# heavy 1: not shown
# heavy 2: not shown
# light: B1 light
# notes: as for B1
# B24: GpH7-A5/GpH7-B3 variant P329_08L/GpL16-k0 (antibody, human IgG1, kappa)
# heavy 1: not shown
# heavy 2: not shown
# light: B1 light
# notes: as for B1
# B25: GpH7-A5/GpH7-B3 variant P329_11K/GpL16-k0 (antibody, human IgG1, kappa)
# heavy 1: not shown
# heavy 2: not shown
# light: B1 light
# notes: as for B1
# B26: GpH7-A5/GpH7-B3 variant P329_12R/GpL16-k0 (antibody, human IgG1, kappa)
# heavy 1: not shown
# heavy 2: not shown
# light: B1 light
# notes: as for B1
# B27: GpH7-A5/GpH7-B3 variant P329_13S/GpL16-k0 (antibody, human IgG1, kappa)
# heavy 1: not shown
# heavy 2: not shown
# light: B1 light
# notes: as for B1
# B28: GpH7-A5/GpH7-B3 variant P329_14T/GpL16-k0 (antibody, human IgG1, kappa)
# heavy 1: not shown
# heavy 2: not shown
# light: B1 light
# notes: as for B1
# B29: GpH7-A5/GpH7-B3 variant P329_15Y/GpL16-k0 (antibody, human IgG1, kappa)
# heavy 1: not shown
# heavy 2: not shown
# light: B1 light
# notes: as for B1
# B30: GpH7-A5/GpH7-B3 variant P329_16H/GpL16-k0 (antibody, human IgG1, kappa)
# heavy 1: not shown
# heavy 2: not shown
# light: B1 light
# notes: as for B1
# B31: GpH7-A5/GpH7-B3 variant P329_18N/GpL16-k0 (antibody, human IgG1, kappa)
# heavy 1: not shown
# heavy 2: not shown
# light: B1 light
# notes: as for B1
# B32: GpH7-A5/GpH7-B3 variant P329_19Q/GpL16-k0 (antibody, human IgG1, kappa)
# heavy 1: not shown
# heavy 2: not shown
# light: B1 light
# notes: as for B1
# Molecular target: T1, FcγRIIa H (FcγRIIa type H, His at position 131), extracellular domain with C-terminal His tag (human, UniProt P12318 34-217)
# T1 construct: extracellular domain; Expressed in FreeStyle293 cells; analyte in the Biacore assay; also called FcgRIIa H; 2aH; not shown: His tag at the C terminus
# T1 sequence (looked up): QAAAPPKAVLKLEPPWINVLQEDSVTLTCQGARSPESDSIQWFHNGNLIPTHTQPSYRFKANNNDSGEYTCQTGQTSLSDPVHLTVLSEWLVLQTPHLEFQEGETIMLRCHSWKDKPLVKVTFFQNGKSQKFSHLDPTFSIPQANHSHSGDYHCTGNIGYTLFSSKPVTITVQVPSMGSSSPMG
# Test: SPR Biacore; He/Con_2aH divided by He/Con_2b (reference: FcgRIIb)
row,He_2aH/2b (IIaH/IIb),Binder
1,1.52,B1
2,1.3,B2
3,1.24,B3
4,1.27,B4
5,1.58,B5
6,1.21,B6
7,1.28,B7
8,1.2,B8
9,1.22,B9
10,1.23,B10
11,1.26,B11
12,1.3,B12
13,1.8,B13
14,1.22,B14
15,1.27,B15
16,1.52,B16

row,He_2aH/2b (IIaH/IIb),Binder
1,1.55,B17
2,1.56,B18
3,1.62,B19
4,1.57,B20
5,1.38,B21
6,1.5,B22
7,1.56,B23
8,1.56,B24
9,2.74,B25
10,2.63,B26
11,1.64,B27
12,1.65,B28
13,1.5,B29
14,1.69,B30
15,1.64,B31
16,1.26,B32

# Molecular target: T2, FcγRIIb, extracellular domain with C-terminal His tag (human, UniProt P31994 43-217)
# T2 construct: extracellular domain; Expressed in FreeStyle293 cells; analyte in the Biacore assay; also called FcgRIIb; 2b; not shown: His tag at the C terminus
# T2 sequence (looked up): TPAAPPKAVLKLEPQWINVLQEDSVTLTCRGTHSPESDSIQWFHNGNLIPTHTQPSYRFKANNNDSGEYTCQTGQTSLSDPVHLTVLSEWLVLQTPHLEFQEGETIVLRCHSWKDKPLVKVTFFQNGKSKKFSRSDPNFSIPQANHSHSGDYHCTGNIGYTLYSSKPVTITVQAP
# Test: SPR Biacore, captured antibody, FcgR analyte; GpH7-A5/GpH7-B3/GpL16-k0 = 100
row,He/Con_2b,Binder
1,52.4 % of HeCon Ab,B1
2,67.1 % of HeCon Ab,B2
3,70.5 % of HeCon Ab,B3
4,84.8 % of HeCon Ab,B4
5,41.3 % of HeCon Ab,B5
6,77.9 % of HeCon Ab,B6
7,63.7 % of HeCon Ab,B7
8,81.4 % of HeCon Ab,B8
9,80.6 % of HeCon Ab,B9
10,81.8 % of HeCon Ab,B10
11,76.1 % of HeCon Ab,B11
12,80.7 % of HeCon Ab,B12
13,48.9 % of HeCon Ab,B13
14,89.9 % of HeCon Ab,B14
15,58.2 % of HeCon Ab,B15
16,20.3 % of HeCon Ab,B16

row,He/Con_2b,Binder
1,10.4 % of HeCon Ab,B17
2,19.1 % of HeCon Ab,B18
3,40.5 % of HeCon Ab,B19
4,38.5 % of HeCon Ab,B20
5,32.2 % of HeCon Ab,B21
6,29.1 % of HeCon Ab,B22
7,34.6 % of HeCon Ab,B23
8,29.1 % of HeCon Ab,B24
9,16.9 % of HeCon Ab,B25
10,17.6 % of HeCon Ab,B26
11,41 % of HeCon Ab,B27
12,37.9 % of HeCon Ab,B28
13,45.7 % of HeCon Ab,B29
14,39.1 % of HeCon Ab,B30
15,40.4 % of HeCon Ab,B31
16,30.7 % of HeCon Ab,B32

# Molecular target: T1, FcγRIIa H (FcγRIIa type H, His at …)
# Test: as above
row,He/Con_2aH,Binder
1,79.7 % of HeCon Ab,B1
2,87.3 % of HeCon Ab,B2
3,87.6 % of HeCon Ab,B3
4,108 % of HeCon Ab,B4
5,65.4 % of HeCon Ab,B5
6,94.5 % of HeCon Ab,B6
7,81.6 % of HeCon Ab,B7
8,97.7 % of HeCon Ab,B8
9,98.1 % of HeCon Ab,B9
10,101 % of HeCon Ab,B10
11,96.2 % of HeCon Ab,B11
12,105 % of HeCon Ab,B12
13,87.8 % of HeCon Ab,B13
14,110 % of HeCon Ab,B14
15,73.7 % of HeCon Ab,B15
16,30.9 % of HeCon Ab,B16

row,He/Con_2aH,Binder
1,16.1 % of HeCon Ab,B17
2,29.9 % of HeCon Ab,B18
3,65.7 % of HeCon Ab,B19
4,60.4 % of HeCon Ab,B20
5,44.5 % of HeCon Ab,B21
6,43.7 % of HeCon Ab,B22
7,53.8 % of HeCon Ab,B23
8,45.4 % of HeCon Ab,B24
9,46.2 % of HeCon Ab,B25
10,46.4 % of HeCon Ab,B26
11,67.3 % of HeCon Ab,B27
12,62.4 % of HeCon Ab,B28
13,68.7 % of HeCon Ab,B29
14,66.1 % of HeCon Ab,B30
15,66.2 % of HeCon Ab,B31
16,38.7 % of HeCon Ab,B32
